Values quoted from earlier work, collected in paper PMC8138767, “Intrinsically disordered substrates dictate SPOP subnuclear localization and ubiquitination activity” (The Journal of Biological Chemistry, 2021).

Legend:
SPOP28–359 = target: T1, SPOP28–359 (Homo sapiens, UniProt O43791); conditions: substrates with six (DAXX) and seven (AR) SB motifs; cited from earlier work
T1 construct: A plasmid encoding His–SUMO–SPOP human residues 28 to 359; His-SUMO (N, cleaved yes); made in house; host or cells: E. coli Rosetta BL-21(DE3)
T1 sequence (O43791 28-359): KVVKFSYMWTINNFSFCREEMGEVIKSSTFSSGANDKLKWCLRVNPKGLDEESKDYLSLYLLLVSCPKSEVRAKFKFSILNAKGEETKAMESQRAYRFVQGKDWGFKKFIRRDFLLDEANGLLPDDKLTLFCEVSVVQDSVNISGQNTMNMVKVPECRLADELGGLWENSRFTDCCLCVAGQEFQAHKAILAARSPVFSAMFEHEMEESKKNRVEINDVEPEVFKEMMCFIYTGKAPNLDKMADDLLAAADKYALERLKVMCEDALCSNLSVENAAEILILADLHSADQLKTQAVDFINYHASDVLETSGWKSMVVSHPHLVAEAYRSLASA
From the text: We next sought to assess the role of SPOP oligomerization in the SPOP–Pdx1 interaction and saw a near 10-fold enhancement in binding affinity of Pdx1 to oligomeric SPOP28–359 compared with SPOP–MATH (Fig. 5B and Table S4) in agreement with previous similar observations ([22], [23]). Concentration-dependent SPOP self-association results in an ensemble of oligomeric species with sizes spanning from dimers to large multimers ([21]). SPOP substrates DAXX and AR are also multivalent for SPOP; they contain six and seven SB motifs, respectively, which dramatically enhances their affinities for SPOP28 ...

SPOP = conditions: in phase-separated droplets in cells; cited from earlier work
From the text: SPOP derives its name from the […]. Specifically, SPOP colocalizes with nuclear speckles but has also been reported in other subnuclear compartments ([24], [26]). The nuclear speckles that house SPOP in the absence of high concentrations of substrate are liquid-like in nature ([21]). The SPOP substrate DAXX typically localizes to promyelocytic leukemia bodies ([27]).

Substance: AR: androgen receptor, SPOP substrate with seven SB motifs
- affinity for SPOP28–359 relative to SPOP–MATH (SPOP28–359): dramatically enhances their affinities for SPOP28–359 relative to SPOP–MATH
- SPOP-mediated polyubiquitination in cells (SPOP): robust SPOP-mediated polyubiquitination
